Data reported in publication PMC2173783.
pKd: −log10 of the molar value. Read-outs that look alike come from different tables or passages of the source.

Assays:
[1] = target: SRP receptor purified from canine pancreas (canine) (UniProt P06625); test: radioligand binding
Sec61 complex = test: radioligand binding
[2] = target: bt-SR (bt-SRβ + SRα) (canine); test: IAsys optical biosensor
[3] = target: bt-SR (bt-SRβ + SRα) (canine); test: IAsys optical biosensor; remark: listed apart in the source
[4] = target: bt-SR (bt-SRβ + SRα) (canine); test: IAsys optical biosensor; remark: listed apart in the source

Row | Substance | pKd [1] | stoichiometry N [1] | pKd (Sec61 complex) | pKd [2] | pKd [3] | koff [2] | kon [2] | koff [4]
1 | 80S ribosomes (complex) | 9.06 | 1 | 8.27 | 9.05 | 8.72 | – | – | –
2 | signal recognition particle (from UniProt P61010 1-504) (complex) | – | – | – | – | – | 0.0069 s⁻¹ | 48000 M⁻¹ s⁻¹ | 0.0065 s⁻¹
